Test results published in article PMC10715145.

Assays:
PacCZF-MBP [1] = target: T1, PacCZF-MBP (Alternaria alternata (tangerine …, UniProt A0A177DU84 1-150)); experiment: EMSA; […]; 28°C for 20 min; […]; buffer, […]; details: protein: recombinant; tags: MBP (pMAL-c5x); label: 3'-biotin; blunt
PacCZF-MBP [2] = target: T1, PacCZF-MBP; experiment: competition; excess unlabeled mutant vs labeled WT ACTT6 probe; […]; 28°C for 20 min; […]; buffer, […]; details: protein: recombinant; tags: MBP (pMAL-c5x); label: unlabeled; blunt

B1: ACTT6 promoter WT probe (dsDNA)
DNA 1: CGTGACTGACATCCCGCCAAGGCTAACCATCCGGGA
DNA 2: TCCCGGATGGTTAGCCTTGGCGGGATGTCAGTCACG
binding result (PacCZF-MBP [1]): binds

B2: ACTT6 promoter mutant competitor (dsDNA)
DNA 1: CGTGACTGACATCCCGAACCGGCTAACCATCCGGGA
DNA 2: TCCCGGATGGTTAGCCGGTTCGGGATGTCAGTCACG
binding result (PacCZF-MBP [2]): no binding

B3: ACTTR promoter WT probe (dsDNA)
DNA 1: ACGAACCACATCCTCGCCAAGGACATGAATGACACA
DNA 2: TGTGTCATTCATGTCCTTGGCGAGGATGTGGTTCGT
binding result (PacCZF-MBP [1]): binds
